{
  "source": "patent US6034062A",
  "about": "“Bone morphogenetic protein (BMP)-9 compositions and their uses” (Genetics Institute, Inc., priority 1997, dated 2000)",
  "molecules": {"B1": {"name": "BMP-9: recombinant human bone morphogenetic protein-9, mature amino acids #1-#110 of SEQ ID NO:9, expressed in CHO cells (protein)", "chain": "TRECSRSCPRTAPQRQVRAVTRRTRMAHVAAGSTLARRKRSAGAGSHCQKTSLRVNFEDIGWDSWIIAPKEYEAYECKGGCFFPLADDVTPTKHAIVQTLVHLKFPTKVG", "modifications": "125I-iodinated as tracer; unlabelled BMP-9 used as the displacing ligand"}},
  "key": {"[1]": {"system": "Articular cartilage explants from calf carpal joints", "assay": "Articular cartilage assay (proteoglycan synthesis, sulfate incorporation)", "assay_type": "cell-based", "procedure": "The effect of BMP-9 on articular cartilage proteoglycan and DNA synthesis is assayed to determine if BMP-9 is involved in the regulation of metabolism of differentiated articular cartilage.\nArticular cartilage explants from calf carpal joints are maintained in DMEM with 50 μg/ml ascorbate, 4 mM glutamine and antibiotics for 3 days. Cytokines (rhBMP-2, rhBMP-4, rhBMP-6 and rhBMP-9, IGF-1, bFGF (1-1000 ng/ml), and TGFβ (1-100 ng/ml)) are added to the medium and culture is continued for 3 more days. Medium is changed daily. Twenty-four hours prior to harvest, explants are pulsed with 50 μCi/ml ^35 SO4 or 25 μCi/ml ^3 H-thymidine. Explants are solubilized and separation of free isotope is performed by gel chromatography. Total DNA of each explant is measured by a spectrophotometric assay."}, "NMuli": {"system": "NMuli", "assay": "125I-BMP-9 binding to NMuli liver cell line", "conditions": "iodinated CHO-derived BMP-9", "procedure": "(§1) BMP-9 responsiveness in parenchymal liver cells is tested by screening four liver cell lines for their ability to bind iodinated, CHO-derived BMP-9. […] Specific binding of BMP-9 to HepG2 cells is carried out by incubating HepG2 cells grown to confluence in Dulbecco's Modified Eagle's Medium (DME) containing 10% heat-inactivated fetal calf serum (FCS) on gelatinized 6 well plates with 2 ng/ml ^125 I-BMP-9 and increasing concentrations of unlabelled BMP-9 in binding buffer (136.9 mM NaCl, 5.37 mM KCl, 1.26 mM CaCl2, 0.64 mM MgSO4, 0.34 mM Na2 HPO4, 0.44 mM KH2 PO4, 0.49 mM MgCl2, 25 mM HEPES and 0.5% BSA, pH 7.4) for 20 hours at 4° C. to achieve binding equilibrium. This incubation follows a one hour preincubation at 37° C. in binding buffer alone. For crosslinking experiments, the cells were incubated with 500 μM disuccinimidyl suberate for 20 minutes at […] following binding. Cell extracts were analyzed on SDS-PAGE. […] The curvilinear nature of the Scatchard plot indicates negative cooperativity among BMP-9 receptors or that HepG2 cells express at least two populations of BMP-9 receptors with different affinities. Crosslinking analysis on HepG2 cells with ^125 I-BMP-9 yields two binding proteins of apparent molecular weights of 54 and 80 kD. […]"}, "Chang": {"system": "Chang", "assay": "125I-BMP-9 binding to Chang liver cell line", "conditions": "iodinated CHO-derived BMP-9", "procedure": "as §1"}, "NCTC1469": {"system": "NCTC1469", "assay": "125I-BMP-9 binding to NCTC1469 liver cell line", "conditions": "iodinated CHO-derived BMP-9", "procedure": "as §1"}, "HepG2 cells": {"system": "HepG2 cells", "assay": "HepG2 cell proliferation (3H-thymidine incorporation, cell counting)", "assay_type": "cell-based", "procedure": "As a first indication of BMP-9 effects on confluent, serum starved HepG2 cells, cell proliferation is examined as determined by ^3 H-thymidine incorporation and cell counting. HepG2 cells are plated at […] in 96 well plates and cultured for 48 hours in DME/0.1% FCS to synchronize the cell cycle are treated for 24 hours with or without BMP-9 in the presence of 0.1% FCS. In ^3 H-thymidine incorporation assays, ^3 H-thymidine was included during the last 4 hours of treatment and cellular DNA was collected with a 96 well plate cell harvester. Proliferation was assayed by quantifying ethanol-precipitable ^3 H-thymidine incorporation by liquid scintillation counting. For cell counting assays, cells were trypsinized and counted with a hemacytometer. Primary rat hepatocytes isolated from male Fischer 344 rats (Charles River, Wilmington, Mass.) by collagenase digestion as previously described [Michalopoulos et al., Cancer Res. 42:4673-4682 (1982)] are plated on collagen-coated plates at subconfluence (5,000-10,000 cells/cm^2) in serum-free media as described in Michalopoulos et al., Cancer Res. 42:4673-4682 (1982) and treated with or without rhBMP-9 for 36 hours. ^3 H-thymidine was included throughout the treatment period and incorporated ^3 H-thymidine was quantified as described by Anscher et al., New England J. Med. 328:1592-1598 (1993). BMP-9 stimulates ^3 H-thymidine incorporation in HepG2 cells approximately five fold."}, "[2]": {"system": "A-549 lung epithelial cells", "assay": "Cell proliferation, [3H]thymidine incorporation, A-549", "assay_type": "cell-based", "conditions": "subconfluent, 24 h", "procedure": "(§2) Several cell lines are tested for BMP-9 responsiveness in vitro. Cell proliferation, as indicated by [^3 H]thymidine incorporation, is determined in cell lines derived from kidney and lung. Cell proliferation is determined by measuring [^3 H]thymidine incorporation in subconfluent cells treated for 24 h with or without growth factors. NRK-52E (ATCC CRL 1571), WI-38 (ATCC CCL-75), CCD-11Lu (ATCC CCL-202), CCD-16Lu (ATCC CCL-204), and A-549 (ATCC CCL-185) cell lines are placed at 10^4 cells/well in 96 well plates and assayed for [^3 H]thymidine incorporation as described above. IMCD-3 cells (ATCC #CRL-2123) are cultured in a collagen matrix as described by Barros et al., PNAS USA 92:4412-4416 (1995), and treated with growth factors for 6 days to allow tubule formation."}, "IMCD-3 cells": {"system": "IMCD-3 cells", "assay": "IMCD-3 cell condensation and tubulogenesis in collagen matrix", "assay_type": "cell-based", "conditions": "IMCD-3 cells in 3-dimensional collagen gel, 100 ng/ml, 6 days, serum-free", "procedure": "as §2\nIn contrast, BMP-9 appeared to stimulate proliferation in several fibroblast cell lines derived from lung. […] The effect of rhBMP-9 on tubulogenesis was examined in IMCD-3 cells, another epithelial kidney cell line. […] It is therefore contemplated that both lung and kidney cells are physiological targets for BMP-9."}},
  "data": [
    {"molecule": "B1", "values": [
      {"measurement": "proteoglycan synthesis", "setting": "[1]; 100 ng/ml, calf articular cartilage explants", "value": "significantly more active in stimulating proteoglycan synthesis"},
      {"measurement": "proteoglycan synthesis versus control", "setting": "[1]; dose of 10 ng/ml, p<0.05, calf articular cartilage explants", "value": "stimulates proteoglycan synthesis above control levels"},
      {"measurement": "specific binding of 125I-BMP-9", "setting": "NMuli", "value": "to some extent"},
      {"measurement": "specific binding of 125I-BMP-9", "setting": "Chang", "value": "to some extent"},
      {"measurement": "specific binding of 125I-BMP-9", "setting": "NCTC1469", "value": "highest degree of binding"},
      {"measurement": "ED50, stimulation of 3H-thymidine incorporation", "setting": "HepG2 cells; HepG2 cells, estimated", "value": 0.01, "unit": "µg/mL"},
      {"measurement": "cell counting", "setting": "HepG2 cells; HepG2 cells, treated 24 hours", "value": "stimulatory effect"},
      {"measurement": "stimulation of 3H-thymidine incorporation", "setting": "HepG2 cells; confluent, serum starved HepG2 cells, treated 24 hours, 0.1% FCS", "value": "approximately five"},
      {"measurement": "cell proliferation ([3H]thymidine incorporation)", "setting": "[2]", "value": "inhibited proliferation"},
      {"measurement": "cell condensation and tubulogenesis", "setting": "IMCD-3 cells", "value": "did not induce tubules and inhibited the cell condensations and tubule formation observed under control conditions"}
    ]}
  ]
}
